Laboratory results: paper doi:10.1101/2024.10.28.620575
“And” between values parts separate entries of the source, which are not always exact repeats. Identical values can stand only once.

Columns and labels:
[1] = biological target: DM2h^Bla-1-Myc (Arabidopsis thaliana); assay: native gel or EMSA
[2] = biological target: ΔTPDM3^Col-0 (recombinant, 52-515) (Arabidopsis thaliana); assay: cryo-EM structure
[3] = biological target: ΔTPDM3^Col-0 D332R (recombinant) (Arabidopsis thaliana); assay: SEC
[4] = biological target: ΔTPDM3^Col-0 DQ-RR (D332R Q345R double mutant, recombinant) (Arabidopsis thaliana); assay: SEC
[5] = biological target: ΔTPDM3^Col-0 DQN-AAA (D332A Q345A N349A triple mutant, recombinant) (Arabidopsis thaliana); assay: SEC
[6] = biological target: ΔTPDM3^Col-0 Q345R (recombinant) (Arabidopsis thaliana); assay: SEC
[7] = biological target: ΔTPDM3^Col-0 S214A (recombinant) (Arabidopsis thaliana); assay: SEC
[8] = biological target: ΔTPDM3^Hh-0 (recombinant, 52-515) (Arabidopsis thaliana); assay: cryo-EM structure
[9] = biological target: ΔTPDM3^Hh-0 S214A (recombinant) (Arabidopsis thaliana); assay: SEC

## DM2h^Bla-1-Myc (receptor)
[1]
  stoichiometry N: 2 and 4

## ΔTPDM3^Col-0 (recombinant, 52-515) (enzyme)
[2]
  stoichiometry N: 6

## ΔTPDM3^Col-0 D332R (recombinant) (enzyme)
[3]
  stoichiometry N: 6

## ΔTPDM3^Col-0 DQ-RR (D332R Q345R double mutant, recombinant) (enzyme)
[4]
  stoichiometry N: 6

## ΔTPDM3^Col-0 DQN-AAA (D332A Q345A N349A triple mutant, recombinant) (enzyme)
[5]
  stoichiometry N: 6

## ΔTPDM3^Col-0 Q345R (recombinant) (enzyme)
[6]
  stoichiometry N: 6

## ΔTPDM3^Col-0 S214A (recombinant) (enzyme)
[7]
  stoichiometry N: 6

## ΔTPDM3^Hh-0 (recombinant, 52-515) (enzyme)
[8]
  stoichiometry N: 6

## ΔTPDM3^Hh-0 S214A (recombinant) (enzyme)
[9]
  stoichiometry N: 6
